Experimental findings from the nanobody polyreactivity screen of Harvey et al. (2022) are described below.

The nature of the series: yeast display, Sf9 membrane polyspecificity reagent, FACS + sequencing; frameworks hold sequencing errors. An outline of the steps:
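Galactose-induced (36–48 hours) yeast carrying a synthetic nanobody display library were exposed to 10% biotinylated, detergent-solubilized Sf9 membrane reagent at 4 °C for 1 hour. FACS followed streptavidin microbead enrichment, using low and high (top ~1%) gates for expression (anti-HA) and reagent binding (streptavidin). Colony PCR, MiSeq 2 × 250 sequencing and CDR-length filtering followed. Labels for polyreactivity reflect the gate of origin.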
For the sequence “QVQLVESGGGLVQAGGSLRLSCAASGRIFNSNAMGWYRQAPGKERELVAAISWSGGTTYYADSVKGRFTISRDNAKNTVYLQMNSLKPEDTAVYYCNADLWTSYFGRGDYWGQGTQVTVSS”, the “polyreactivity (PSR sort gate)” value is listed as “low polyreactivity”. The entry for “QVLLVESGGGLVQAGGSLRLSCAASGSNFYRNAMGWYRQAPGKERDFVAAISRSTGRTFYADSVKGRFTISRDNAKNTVYLQMKSLQPEDTAVYYCDAAAKAGTTPTRSYWRHDSWGQGTQVSVSS” is “high polyreactivity”; for “QDQLVESAGGLVQAGGSLSLSCAATGFTFYYNAMGWYRPAAGKERELVASITRSGGRTYYADSVKGRFTISRDNAKNTVYLQMNSLKPEDTAVFYCARRYPGGYYWGQGTQVTVSS” it is “high polyreactivity”; for “QVQLVESGGGLVQAGGSLRLSCAASGFIFRFYAMGWYRQAPGKERELVATISKRGGTTYYADSVKGRFTISRDNAKYTVYLQMNSLKPEDTAVYFCAVRLYLEMDYWGQGTQVTVSS” it is “high polyreactivity”. The entry for “QVQLVESGGGLVQAGGSLRLSCAASGGIFDRYAMGWYRPAPGKERELVAGITWSGGRTYYADSVKGRFTISRDNAKNTVYLQMNSLKPEDTAVYYCAASLYTWTYQPVYYRDGYWGQGTQVTVSS” is “low polyreactivity”; for “QDQLVESGGGLVQAGGSLRLSCAASGRIFAGNARGWYRQAPGKERELVATITRGGSTNYADSVKRPFTISRDNAKNTVYLQMNSLNPEDTAVYYCNADIRRHGGYAHVYWGQGTQVTVSS” it is “low polyreactivity”. The entry for “QVQLVESGVGLVQAGGSLRLSCAASGIIFPGYVMGWYRQAPGKERELVAAISSGGRTYYADSVKGRFTISRDNAKNTVSLQMNSLKPEDTAVYYCAAGGRARTYYYWGQGTQVTVSS” is “high polyreactivity”; for “QVQLVESGGGLVQAGGSLRLSCAASGRIFRYYAMGWYRPAPGKERELVAAITWRGDSTYYADSVKGRFTISRDNAKNTVYLQMNSLKPEDTAVYYCNKRWTDKYDSWGQGTQVTVSS” it is “high polyreactivity”. As for “QVQLVESGGGLVQAGGSLPLSCAASGRIFRGYAMGWYRQAPGKERELVAAISRTGGSTYYADSVKGRFTISRDNAKNTVYLQMNSLKPEDTEVYYCNANRFRRYDWGQGTLVTVSS”, the “polyreactivity (PSR sort gate)” value was “high polyreactivity”. The entry for “QVQLVESGGGLVQAGGSLRLSCAASGFIFGINAMGWYRQAPGKERELVAAISKRTGSTYYADSVKGRFTISRDNAKNTVYLQMNSLKPEDTAVYYCNVVRYNGLDKYDYWGQGTQVTVSS” is “high polyreactivity”; for “QVQLVESGGGLVQAGGSLRLSCAASGSIFYVYAMGWYRQAPGKERELVAAISDDGDTYYADSVKGRFTISRDNAKNTVYLQMNSLNPEDTAVYYCAAEGGANEENSSPEYDYWGQGTQVTVSS” it is “low polyreactivity”; for “QVHIVESGGGLVQAAGSLRLSCAASGSTLAIYDMGWYRQAPGKERELVAAISGGGSTYADSVKGRFTISPDNAKNTVYLHMNSLKTEDTAVYYFNADGWGDLFWSNFRFDYWVQGTQVTVSS” it is “low polyreactivity”. Then “QVQLVESGGGLVQAGGSLRLSCAASGSTFGYNAMGWYRQAPGKERELVAAISYSGGSTSYADSVKGRFTLSRDNEKNTVYVQMNSLKPVDAAVYYCARESYSQYSSQALEGYGYWGQGTQVTVSS”, with “low polyreactivity”. Then “QVQLVESWGGLVQAGGSLRLSCAASGSIFYSNAMGWYSQAPGKERELVAAIRTSAGSTYYADSVKGRFTISRDTAKNTVYLQMNSLKPEDTAVYYCAAVTTYYYYDVSDYAYEFYYWGQGTQVTVSS”, with “low polyreactivity”; and “QVQLVESGGGLVQAGGSLRLSSAASGSIFGSNAMGWYRPAPVKERELVAAISSGSTYYADSVKGRFTISRDNAKNTVYLQMNSLKPEDTAVYYCYARSLLYEFDYWGQGTQVTVSS”, with “low polyreactivity”. For “QVQLVESGGGLVQAGGSLRLSCAASGSTFVVNAMGWYRQAPGKERELVAAITQSGGSTFYADSVKGRFTISRDNAKNTVYLQMNSLKPEDTAVYYRGQGTQVTVSS”, the “polyreactivity (PSR sort gate)” value was “low polyreactivity”. With “QVQLVESGGGLVQAGGSLRLSCAASGIIIRKYAMGWYRQAPGKERELVAAITTRGSRTYYADSVKGRFTISRDNAKNTVYFEMNSLKPEDTAVYYCAADFGYAWWWYDTYGYWGQGTQVTVSS”, the “polyreactivity (PSR sort gate)” value is on record as “high polyreactivity”. With “QVQLVESGGGLVQAGGSLRLSCAASGYIFQPYAMGWYRQAPGKERELVAAIDWTGGRTYYADSVKGRFTISRDNAKNTVYLQMNSLKPEVTAVYYCNADFGYWWDGRRYDYWGQGTQVTVSS”, the “polyreactivity (PSR sort gate)” value is given as “low polyreactivity”.

Consider “QVQLVESGGGIVQAGGSLRLSCAASGFIFHRNAMGWYRQAPGKERELVASITKRGGNTYYADSVKGRFTISRDTAKNTDFLQMTSLNPEDTGVYYCATQLWGWDWKRDYWGQATQVTVSS”, for which the “polyreactivity (PSR sort gate)” value is “high polyreactivity”. The entry for “QVQLVESGGGLVQAGGSLRLSCAASGSIFISYAMGWYRQAPGTERELVAAITWSGDSTYYADSVKGRFTISRDNAKNTVYLQMNSLKPEDTAVYYCAADWYFRNQRGYYWGQGTQVTVSS” is “low polyreactivity”; for “QVQLVESGGGLVQAGGSLRLSCAASGYNFKRYTMGWYRQAPGKERELVAAISGGDSTNYADSVKGRFTISRDNAKNTVYLHMNSLKPEDTAVYYCAAGGLTLWHGYILGYWGQGTQVTVSS” it is “low polyreactivity”; for “QVQLQESGGGLVQAGGRLPMSFAASGNIFDADIMGWYRQAPGKERELVASITDGRRTNYADSVKGRYTTSRDSEKNTVYLQMNSLKPEDTAVYYCAAIAYPVVPTYFDYDSDYFHWGQGTQVTVSS” it is “high polyreactivity”.

As for “QVQLVESGGGLDQAGGSLRLSCAASGSIISGYAMGWYRQAPGKERELVAAISSSGGRTYYADSVKGRFTISRDNAKNTVYLQMNSLKPEDTAVYYCNARQFSRYDYNYWGQGTQETVSS”, the “polyreactivity (PSR sort gate)” value was “high polyreactivity”. The entry for “QVQLVESGGGLVQAGGSLRLRCAASGRIFRLYDMGWYRHAPGKEREFVAAISSSGDSTYYADSVKGRFTISRDNAKNTVYLQMNSLKPEDTAVYYCAAVTRRYVLSTFYYWGQGTQVTVSS” is “high polyreactivity”; for “QVQLVESGGGLVQAGGSRRLSCAASGSTFRGNARGRYRQAPGKERELVAAITWSGDDTYYADSVKGRFTISRDNAKNTVYIQMNSLKPEDTAVYYCAADVQPDTRSTPEMDYWGQGTQVTVSS” it is “low polyreactivity”. Then “QVQLVESGGGLVQAGGSLRLSCAASGSIFQYYVMGWYRQAPGKERELVAAISQSGGRTYYADSVKGRFTISRDNAKNTVYLQMNSLKPVDTAVFYCAADSRNAEYDYWGQGTQVTVSS”, with “high polyreactivity”; and “QVQLVESGGGLVQAGGSLRLSCAASGSTFVDNAMGWYRQAPGKERELVASITYRGGSTYYADSVKGRFTISRDNAKNTVYLQMNSLKPEDTAVYYCAKGHYFKYDYWGQGTQVTVSS”, with “low polyreactivity”.

“QVQLVESGGGLVQAGGSLRLSCAASGSIFVYYDMGWYRQAPGKERELVAAISTTCGRTYYADSVKGRFTISRDNAKNTVYLQMNSLKPEATAVYYCAARYTIPYKRYDYWGQGPQVTVSS”: the “polyreactivity (PSR sort gate)” value is recorded as “high polyreactivity”. The entry for “QVQLVESGGGLVQAGGSLRLSSAASGFTFKAYALGWYRQAPGTERELVAAITKSGGRTFYADSVKGRFTISRDNAKNTVYLQINCLNPEDTAVYYCSGRRWGYWTGYRGLDYDYWGQGTQVTVSS” is “high polyreactivity”; for “QVQLVESGGGVVQAGGSLRLSCAASGTIFYENAMGWYRQAPGKEREFVATIDLIGDRTYYADSVKGRFTISRDNAKNTVYLQMNSLKPEDTAVYYCAAERVGVFFRYDYWGQGTQVTVSS” it is “low polyreactivity”. For “QVQLVESGGALVQAGGSLRLSCAASGYTFSKYAMGWYRQAPGKERELVAAISKRGGSTSYADSVKGRFTISRDNAKNTVYLQMNILKPEDTAVYYCNAREWSRTFDYWGQGSQVTVSS”, the “polyreactivity (PSR sort gate)” value was “high polyreactivity”.

On to “QVQLVESGGGLVQEGGSLRLSCAASGITFKTYAMGWYRQAPGKESELVATINRGSRTNYADPVKGRFTISRDNAKNTVYLQMNSLKPEDTAVYYCAAHYTTFIPSPDGDYLGQGTQVTVSS”, for which the “polyreactivity (PSR sort gate)” value is reported as “low polyreactivity”. The entry for “QVQLVESGGGLVQAGGSLRLSCAASGRIFYYNALGWYRPAPGKERELVAAISWSGGSTYYADSVKGRFTISRDNATNTVYLQMNSLKPEDTAVYYCAVDVYGYTPRPTREPLIYEYWGQGTQVTVSS” is “low polyreactivity”; for “QVQLVESGGGLVQAGGSLRLSCAASGSTFQANAMAWYRPAPGKERELVAAISSRGGITYYADSVKARFTISRDNAKNTVYLQMNSLKPEDTAVYYCNALPRSTYRQGLGVRLYYWGQGTQVTVSS” it is “high polyreactivity”. The entry for “QDQLVDSGGGLDQAGGSLRLSCAASGIIFPRYALGWYRQAPGKERELVAAITRRGGRTYYADSVKGRFTISRDNAKNTVYLQMNSLKPEDTAVYYCNADFISTLPPKATEEDYWGQGTQVTVSS” is “high polyreactivity”. The entry for “QVQLVESGGGLVQAGGSLRLSCAASGRTFRHNTMGWYRQAPGKEREFVAVITTSGGSTYYADSVKGRFTISRDNAKNTVYLQMNSMKPEDTAVYYCNAKYHLSRSTYYYWGQGTQVTVSS” is “high polyreactivity”. Turning to “QVQLGESGGGLVQAGGSLRLSCAASGITFWSYAMGLYRQAPGKERELVATIRWSGGGTYYADSVKGRFTISRDNAKNTVYLQMNSLKPEDTAVYYCNADDYGHPPYDYWGQGTQVTVSS”, the “polyreactivity (PSR sort gate)” value was “high polyreactivity”. Then “QVQLVESGGGLVQAGGSLSLSCAASGSTFWYYAMGLYRQAPGKERELVAAITRGGNTYYADSVKGRFTISRDNAKNTVYLQMNSLKPEDTAVYYCAAGFYLLGKYDYWGQGTQVTVSS”, with “high polyreactivity”; and “QVQLVESGGGLVQAGGSLRLSCAASGIIFRGNAMGWYRQAPGKERELVAAISKSGGRTYYADSVKGRFTISRDNAKNTVYLQMNSLKPEDTAVYYCAASYYAVGGYDYWGQGTQVTVSS”, with “high polyreactivity”. Then “QVQLVESGGGLVQAGGSLRLSCAASGSIFNSNAMGWYRPAPGKERELVAAITGSGGRTYYADSVKGRFTISRDNAKNTVYLKMNSLKPEDTAVYYCNVTRGTIGGYSYWGQGTQVTVSS”, with “high polyreactivity”; and “QVQLVESGGGLVQAGGSLRLSCAASGRTFYPYAMGWYRPAPGKERELVAAIRWSGGSTYYADSVKGRFTISRDNAKNTVYLQMNSLKPEDTAVYYCNADWKSYRGPKFDYWGQGTQVTVSS”, with “low polyreactivity”.
